Assay [1] deals with E1E2 of HCV genotype 3a isolate UKN3A13.6 (Hepatitis C virus genotype 3a). Briefly: cell-based or functional assay.
Assay [2] addresses E1E2 of HCV genotype 5 isolate UKN5.15.11 (Hepatitis C virus genotype 5). Put plainly: cell-based or functional assay.
The target of assay [3] is H77 E1E2 mutant G418A (Hepatitis C virus genotype 1a strain H77) (UniProt P27958). Briefly: GNA capture EIA of E1E2 from HEK 293T cells.
Assay [4] concerns the target H77 E1E2 mutant L413A (Hepatitis C virus genotype 1a strain H77) (UniProt P27958). Put plainly: GNA capture EIA of E1E2 from HEK 293T cells.
The target in assay [5] is H77 E1E2 mutant N415A (Hepatitis C virus genotype 1a strain H77) (UniProt P27958). Put plainly: GNA capture EIA of E1E2 from HEK 293T cells.
Assay [6] concerns the target H77 E1E2 mutant Q412A (Hepatitis C virus genotype 1a strain H77) (UniProt P27958). Put plainly: GNA capture EIA of E1E2 from HEK 293T cells.
For assay [7], the target named is H77 E1E2 mutant W420A (Hepatitis C virus genotype 1a strain H77) (UniProt P27958). Briefly: GNA capture EIA of E1E2 from HEK 293T cells.
Assay [8] deals with 412-423 branched peptide (UniProt P27958). Put plainly: antibody titration on the branched peptide (FIG. 10).

monoclonal antibody AP33: the IC50 of HCVpp neutralisation (ug/ml (printed p.g/ml)) in assay [1] was determined as 22; in assay [2], 0.6. Besides, the reduction of binding compared to wild type in assay [3], in assay [4], in assay [5] and in assay [7] was above 75% throughout. In assay [6], the enhancement of binding compared to wild type came to 50%. In addition, the fold lower concentration required to obtain 50% binding, against MAb 3/11 in assay [8] was above 10 fold.

These data come from patent US20140322204A1.
